Laboratory results taken from article PMC3229523, “Identification of Lactoferricin B Intracellular Targets Using an Escherichia coli Proteome Chip” (PLoS ONE, 2011).
Ends that are not written are not given here. * marks the point of attachment. Biotin = O=C1N[C@H]2[C@H](CS[C@H]2CCCCC(=O)*)N1

Assays:
Assay in all cases: peptide or protein array; E. coli proteome chip: purified His-tagged proteins printed in duplicate on Fullmoon slides, blocked with 1% BSA; 10 nM N-terminal biotinylated LfcinB with 1% BSA, room temperature, 1 h; detected with DyLight 649-labeled streptavidin, ratio to DyLight 549-labeled anti-His antibody; ProCAT normalisation, local cut-off; triplicate chips
Conditions in all cases: both partners purified
YdcC = molecular target: T1, YdcC (E. coli K-12, UniProt P28917 1-378)
T1 construct: YdcC, E. coli K-12
T1 sequence (looked up): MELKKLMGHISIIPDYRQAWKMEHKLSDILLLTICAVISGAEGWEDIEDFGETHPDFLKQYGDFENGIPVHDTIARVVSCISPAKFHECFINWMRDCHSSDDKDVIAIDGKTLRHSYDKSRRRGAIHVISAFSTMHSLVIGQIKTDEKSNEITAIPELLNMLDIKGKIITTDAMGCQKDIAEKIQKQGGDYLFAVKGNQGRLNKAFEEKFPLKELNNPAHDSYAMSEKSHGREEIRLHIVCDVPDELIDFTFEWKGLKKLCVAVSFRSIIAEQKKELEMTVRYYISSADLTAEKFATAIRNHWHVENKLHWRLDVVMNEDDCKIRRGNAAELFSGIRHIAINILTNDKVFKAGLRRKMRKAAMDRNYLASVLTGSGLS

Hha = molecular target: T2, Hha (E. coli K-12, UniProt P0ACE3 1-72)
T2 construct: Hha, E. coli K-12
T2 sequence (looked up): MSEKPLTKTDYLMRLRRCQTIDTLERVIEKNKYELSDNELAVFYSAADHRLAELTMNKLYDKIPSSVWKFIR

GlpK = molecular target: T3, GlpK (E. coli K-12, UniProt P0A6F3 1-502)
T3 construct: GlpK, E. coli K-12
T3 sequence (P0A6F3 whole entry): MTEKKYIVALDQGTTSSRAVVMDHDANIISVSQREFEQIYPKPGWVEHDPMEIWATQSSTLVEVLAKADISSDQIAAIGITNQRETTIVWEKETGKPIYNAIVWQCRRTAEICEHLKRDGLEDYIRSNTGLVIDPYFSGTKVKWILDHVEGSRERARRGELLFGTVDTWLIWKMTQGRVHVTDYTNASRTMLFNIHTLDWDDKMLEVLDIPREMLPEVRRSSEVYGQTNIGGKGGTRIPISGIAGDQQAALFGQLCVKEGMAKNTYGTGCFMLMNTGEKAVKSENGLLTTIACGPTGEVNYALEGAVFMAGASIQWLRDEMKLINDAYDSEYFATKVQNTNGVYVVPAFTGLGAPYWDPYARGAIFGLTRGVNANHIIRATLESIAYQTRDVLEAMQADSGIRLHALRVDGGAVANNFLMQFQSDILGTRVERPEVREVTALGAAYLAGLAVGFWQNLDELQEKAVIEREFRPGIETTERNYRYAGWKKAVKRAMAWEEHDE

RplW = RplW (E. coli K-12, UniProt P0ADZ0 1-100)
YbaE = molecular target: T4, YbaE (E. coli K-12, UniProt P46890 1-566)
T4 construct: YbaE, E. coli K-12
T4 sequence (looked up): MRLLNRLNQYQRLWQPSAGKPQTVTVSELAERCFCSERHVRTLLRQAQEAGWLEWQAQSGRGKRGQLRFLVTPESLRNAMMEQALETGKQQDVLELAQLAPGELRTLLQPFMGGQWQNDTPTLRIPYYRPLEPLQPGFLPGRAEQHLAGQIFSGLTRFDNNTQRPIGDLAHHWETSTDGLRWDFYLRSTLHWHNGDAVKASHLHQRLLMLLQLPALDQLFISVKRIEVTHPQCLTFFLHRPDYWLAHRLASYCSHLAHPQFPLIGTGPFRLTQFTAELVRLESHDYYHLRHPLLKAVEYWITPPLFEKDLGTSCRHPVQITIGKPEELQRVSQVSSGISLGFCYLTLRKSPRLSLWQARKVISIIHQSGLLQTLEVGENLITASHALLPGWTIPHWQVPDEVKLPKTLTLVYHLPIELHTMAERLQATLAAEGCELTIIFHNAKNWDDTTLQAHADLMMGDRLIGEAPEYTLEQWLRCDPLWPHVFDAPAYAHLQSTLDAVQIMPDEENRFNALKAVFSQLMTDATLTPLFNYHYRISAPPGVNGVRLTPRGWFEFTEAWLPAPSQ

YdaU = molecular target: T5, YdaU (E. coli K-12, UniProt P76065 1-285)
T5 construct: YdaU, E. coli K-12
T5 sequence (looked up): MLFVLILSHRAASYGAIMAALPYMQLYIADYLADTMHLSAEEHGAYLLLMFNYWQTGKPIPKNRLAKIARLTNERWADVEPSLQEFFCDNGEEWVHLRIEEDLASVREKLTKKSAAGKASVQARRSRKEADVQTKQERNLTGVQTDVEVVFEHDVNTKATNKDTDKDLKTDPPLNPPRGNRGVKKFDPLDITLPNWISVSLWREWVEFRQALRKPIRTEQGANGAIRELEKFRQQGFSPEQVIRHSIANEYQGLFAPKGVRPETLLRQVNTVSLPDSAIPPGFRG

YjeS = molecular target: T6, YjeS (E. coli K-12, UniProt P39288 1-379)
T6 construct: YjeS, E. coli K-12
T6 sequence (looked up): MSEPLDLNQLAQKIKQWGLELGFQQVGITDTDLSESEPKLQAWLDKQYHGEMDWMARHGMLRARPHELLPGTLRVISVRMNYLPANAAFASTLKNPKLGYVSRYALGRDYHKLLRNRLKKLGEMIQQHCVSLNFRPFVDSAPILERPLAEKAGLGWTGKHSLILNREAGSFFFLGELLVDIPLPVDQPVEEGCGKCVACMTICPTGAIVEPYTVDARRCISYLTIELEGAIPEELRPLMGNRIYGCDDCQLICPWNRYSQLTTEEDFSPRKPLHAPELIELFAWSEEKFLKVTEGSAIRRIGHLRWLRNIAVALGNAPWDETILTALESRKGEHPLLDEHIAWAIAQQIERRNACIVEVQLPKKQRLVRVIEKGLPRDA

Measured: binding result

B1: N-terminal biotinylated Lactoferricin B (peptide, UniProt P24627 36-60, looked up)
peptide: Biotin-FKCRRWQWRMKKLGAPSITCVRRAF
modifications: ends and bridges not checked
notes: lactoferricin B (LfcinB), cationic antimicrobial peptide of 25 amino acids; also called biotinylated LfcinB; biotin-labeled LfcinB; source: bought: Kelowna Inc
binds: all assays above
